# From the supplement of paper PMC7877785
# ± gives the uncertainty stated by the source.
# Assay: self-splicing fitness, log relative to wild type (ln ratio); higher = more splicing; Tetrahymena group I intron in knt gene, E. coli kanamycin selection, DiMSum; sequences stand for … in CUCUCU…GGAGGGAAAAGUUAUCAGGCAUGCACCUGGUAGCUAGUCUUUAAACCAAUAGAUUGCAUCGGUUUAAAAGGCAAGACCGUCAAAUUGCGGGAAAGGGGUCAACAGCCGUUCAGUACCAAGUCUCAGGGGAAACUUUGAGAUGGCCUUGCAAAGGGUAUGGUAAUAAGCUGACGGACAUGGUCCUAACCACGCAGCCAAGUCCUAAGUCAACAGAUCUUCUGUUGAUAUGGAUGCAGUUCACAGACUAAAUGUCGGUCGGGGAAGAUGUAUUCUUCUCAUAAGAUAUAGUCGGACCUCUCCUUAAUGGGAGCUAGCGGAUGAAGUGAUGCAACACUGGAGCCGCUGGGAACUAAUUUGUAUGCGAAAGUAUAUUGAUUAGUUUUGGAGUACUCGUGGUCG
# Method in brief: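 The eight P1ex-region nucleotides of an intron in the knt kanamycin-resistance gene on pET-22b(+) were all randomised and the library put into E. coli BL21(DE3). Six replicate transformations were grown overnight at 37°C or 30°C on LB agar with or without 25 μg/mL kanamycin, together with 100 μg/mL carbenicillin, 50 μM IPTG and 0.2% rhamnose. Colonies were pooled and amplicon-sequenced on an Illumina HiSeq 2500. Fitness from DiMSum is the error-weighted combination of wild-type-normalised replicate fold changes, kanamycin over none.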
Sequence,self-splicing fitness (ln) (30 °C),self-splicing fitness (ln) (37 °C)
UCAGAGCAAUAUUACGGGAC,-3.74 ± 0.29,-1.6 ± 0.33
UCAGAGCAAUAUUACGGUAU,-2.79 ± 0.2,-3.2 ± 0.44
UCAGAGCAAUAUUACGGUGG,-3.06 ± 0.089,-1.32 ± 0.084
UCAGAGCAAUAUUACGUAAU,-2.52 ± 0.25,-1.66 ± 0.3
UCAGAGCAAUAUUACGUAUU,-3.31 ± 0.2,-3.08 ± 0.29
UCAGAGCAAUAUUACGUCGU,-2.89 ± 0.24,-0.54 ± 0.24
UCAGAGCAAUAUUACGUGGA,-2.49 ± 0.17,-0.107 ± 0.12
UCAGAGCAAUAUUACGUUCC,-3.84 ± 0.47,-2.57 ± 0.49
UCAUAGCAAUAUUACGAAGG,-2.69 ± 0.14,-1.31 ± 0.11
UCAUAGCAAUAUUACGAAUA,-2.82 ± 0.28,-1.04 ± 0.28
UCAUAGCAAUAUUACGAAUG,-2.7 ± 0.16,-1.83 ± 0.16
UCAUAGCAAUAUUACGAAUU,-3.73 ± 0.32,-2.48 ± 0.24
UCAUAGCAAUAUUACGACAA,-2.43 ± 0.26,-1.06 ± 0.15
UCAUAGCAAUAUUACGACAC,,-2.64 ± 0.29
UCAUAGCAAUAUUACGAGCC,,-1.76 ± 0.49
UCAUAGCAAUAUUACGAUGG,-3.32 ± 0.19,-1.3 ± 0.17
UCAUAGCAAUAUUACGAUUC,-2.39 ± 0.18,-2.6 ± 0.33
UCAUAGCAAUAUUACGAUUG,-2.31 ± 0.13,-1.38 ± 0.13
UCAUAGCAAUAUUACGCAAG,-1.94 ± 0.15,-2.04 ± 0.2
UCAUAGCAAUAUUACGCCGU,-3.49 ± 0.34,-1.85 ± 0.39
UCAUAGCAAUAUUACGCGUC,-3.76 ± 0.31,
UCAUAGCAAUAUUACGGGCG,-1.12 ± 0.096,-0.909 ± 0.12
UCAUAGCAAUAUUACGGUCC,-3.53 ± 0.37,-1.81 ± 0.35
UCAUAGCAAUAUUACGGUUG,-3.07 ± 0.19,-1.94 ± 0.17
UCAUAGCAAUAUUACGUAGU,-3.07 ± 0.21,-2.17 ± 0.28

Sequence,self-splicing fitness (ln) (30 °C),self-splicing fitness (ln) (37 °C)
UCAUAGCAAUAUUACGUCAA,-2.44 ± 0.32,
UCAUAGCAAUAUUACGUUAA,,-3.44 ± 0.42
UCAUAGCAAUAUUACGUUAG,-2.9 ± 0.25,-1.66 ± 0.19
UCCAAGCAAUAUUACGAACA,-1.87 ± 0.14,-0.969 ± 0.13
UCCAAGCAAUAUUACGAGAC,,-2.23 ± 0.29
UCCAAGCAAUAUUACGAGGC,-3.67 ± 0.23,-2.26 ± 0.22
UCCAAGCAAUAUUACGAUAG,-2.81 ± 0.13,-2.98 ± 0.21
UCCAAGCAAUAUUACGCGCG,-2.95 ± 0.17,-1.49 ± 0.23
UCCAAGCAAUAUUACGCGGC,-2.74 ± 0.23,-2.94 ± 0.23
UCCAAGCAAUAUUACGGCAC,-4.06 ± 0.29,-0.668 ± 0.11
UCCAAGCAAUAUUACGGCAU,-3.77 ± 0.21,-1.48 ± 0.12
UCCAAGCAAUAUUACGGCCC,,-1.45 ± 0.32
UCCAAGCAAUAUUACGGGGA,-2.58 ± 0.15,-1.27 ± 0.1
UCCAAGCAAUAUUACGGUCU,-2.33 ± 0.1,-0.343 ± 0.097
UCCAAGCAAUAUUACGGUUC,-3.22 ± 0.22,-2.56 ± 0.18
UCCAAGCAAUAUUACGUAGG,-0.867 ± 0.06,-0.159 ± 0.094
UCCAAGCAAUAUUACGUCCG,-2.76 ± 0.21,-1.81 ± 0.19
UCCAAGCAAUAUUACGUGGA,-2.9 ± 0.17,-3.47 ± 0.29
UCCAAGCAAUAUUACGUUAU,-2.78 ± 0.18,-3.5 ± 0.37
UCCCAGCAAUAUUACGAACC,-1.58 ± 0.2,-2.08 ± 0.46
UCCCAGCAAUAUUACGACAU,-3.293 ± 0.018,-2.13 ± 0.035
UCCCAGCAAUAUUACGACUA,-2.12 ± 0.15,-1.15 ± 0.15
UCCCAGCAAUAUUACGACUG,-3.58 ± 0.2,-3.16 ± 0.32
UCCCAGCAAUAUUACGAGUC,-3.66 ± 0.18,-1.56 ± 0.17
UCCCAGCAAUAUUACGAUAG,-3.91 ± 0.26,-1.97 ± 0.23

Sequence,self-splicing fitness (ln) (30 °C),self-splicing fitness (ln) (37 °C)
UCCCAGCAAUAUUACGAUUG,-3.56 ± 0.32,-3.17 ± 0.4
UCCCAGCAAUAUUACGCAGG,-3.88 ± 0.29,-3.54 ± 0.26
UCCCAGCAAUAUUACGCAUU,-2.93 ± 0.076,-1.58 ± 0.082
UCCCAGCAAUAUUACGCCUC,-3.11 ± 0.23,-1.98 ± 0.29
UCCCAGCAAUAUUACGCGGC,,-0.462 ± 0.4
UCCCAGCAAUAUUACGGAGU,-0.413 ± 0.053,-0.504 ± 0.066
UCCCAGCAAUAUUACGGAUA,-1.51 ± 0.093,-0.799 ± 0.084
UCCCAGCAAUAUUACGGGAA,-3.21 ± 0.2,-1.83 ± 0.14
UCCCAGCAAUAUUACGGGGU,-3.87 ± 0.27,-2.86 ± 0.22
UCCCAGCAAUAUUACGGGUG,-1.4 ± 0.06,-0.507 ± 0.075
UCCCAGCAAUAUUACGGUAG,-2.7 ± 0.12,-1.45 ± 0.11
UCCCAGCAAUAUUACGGUCC,-1.68 ± 0.14,-1.26 ± 0.18
UCCCAGCAAUAUUACGUAAC,-2.45 ± 0.11,-1.61 ± 0.17
UCCCAGCAAUAUUACGUAGU,-0.707 ± 0.046,-0.458 ± 0.066
UCCCAGCAAUAUUACGUGAU,-2.17 ± 0.076,-1.52 ± 0.12
UCCCAGCAAUAUUACGUGCC,-4.06 ± 0.23,-2.32 ± 0.2
UCCGAGCAAUAUUACGAAAC,-2.59 ± 0.27,-1.62 ± 0.28
UCCGAGCAAUAUUACGAAAU,-4.17 ± 0.34,
UCCGAGCAAUAUUACGAGGC,-3.1 ± 0.36,-1.7 ± 0.39
UCCGAGCAAUAUUACGAUCC,,-0.617 ± 0.39
UCCGAGCAAUAUUACGAUGG,-0.964 ± 0.097,-0.212 ± 0.12
UCCGAGCAAUAUUACGCAGA,-3.65 ± 0.43,-2.49 ± 0.23
UCCGAGCAAUAUUACGCAUA,-2.24 ± 0.42,-2.26 ± 0.35
UCCGAGCAAUAUUACGCGGG,-3.02 ± 0.28,-2.78 ± 0.38
UCCGAGCAAUAUUACGCGUU,-3.39 ± 0.12,-1.95 ± 0.13

Sequence,self-splicing fitness (ln) (30 °C),self-splicing fitness (ln) (37 °C)
UCCGAGCAAUAUUACGCUGG,-3.33 ± 0.21,-1.56 ± 0.19
UCCGAGCAAUAUUACGGGGC,-4.28 ± 0.23,-2.8 ± 0.17
UCCGAGCAAUAUUACGGUGA,-0.746 ± 0.076,-0.0617 ± 0.095
UCCGAGCAAUAUUACGGUUC,-3.78 ± 0.39,-3.02 ± 0.31
UCCGAGCAAUAUUACGUACU,-3.69 ± 0.25,-2.55 ± 0.34
UCCGAGCAAUAUUACGUAUU,-1.95 ± 0.17,-2.92 ± 0.43
UCCGAGCAAUAUUACGUCUA,-3.11 ± 0.23,-3 ± 0.24
UCCGAGCAAUAUUACGUGUG,-3.13 ± 0.11,-0.996 ± 0.088
UCCGAGCAAUAUUACGUUAA,-2.36 ± 0.21,-2.57 ± 0.28
UCCGAGCAAUAUUACGUUUA,-2.86 ± 0.48,-1.71 ± 0.23
UCCUAGCAAUAUUACGAAGA,-1.13 ± 0.12,0.123 ± 0.12
UCCUAGCAAUAUUACGACAG,-3.29 ± 0.25,-2.42 ± 0.31
UCCUAGCAAUAUUACGACUC,-2.94 ± 0.41,-2.24 ± 0.36
UCCUAGCAAUAUUACGACUG,-3.17 ± 0.27,-3.52 ± 0.42
UCCUAGCAAUAUUACGAGGA,-2.59 ± 0.48,-2.62 ± 0.35
UCCUAGCAAUAUUACGAUGU,-1.49 ± 0.06,-0.553 ± 0.079
UCCUAGCAAUAUUACGAUUC,,-2.2 ± 0.29
UCCUAGCAAUAUUACGCAAA,-2.95 ± 0.21,-1.48 ± 0.12
UCCUAGCAAUAUUACGCAUA,-2.82 ± 0.3,-2.11 ± 0.2
UCCUAGCAAUAUUACGCCGA,-0.215 ± 0.11,0.0045 ± 0.11
UCCUAGCAAUAUUACGCCGU,-1.83 ± 0.26,-0.887 ± 0.24
UCCUAGCAAUAUUACGCGAG,-3.06 ± 0.27,-3.22 ± 0.37
UCCUAGCAAUAUUACGGACC,-2.64 ± 0.27,
UCCUAGCAAUAUUACGGACG,-3.92 ± 0.4,-2.47 ± 0.39
